Reference: article PMC6848142

Test system: KRAS wild type
Test: MST
Details: MST: labeled protein 20 nM final in PBS, RNA diluted in deionized water and mixed 1:1; RNA folded in TE (70 C 5 min, then ice 15 min); pH and assay temperature …

## SNORD50A
  Kd: 140 nM

## SNORD50B
  Kd: 122 nM
